Results from article PMC10434240, “An Atypical F-Actin Capping Protein Modulates Cytoskeleton Behaviors Crucial for Trichomonas vaginalis Colonization” (Microbiology Spectrum, 2023).
Numbering of substitutions follows the chain as printed.

T1: HA-TvFACPα(S2A) (Trichomonas vaginalis, UniProt A2FE30 1-261, S2A)
T1 construct: T. vaginalis F-actin capping protein subunit α (TvFACPα), TVAG_470230; source: transgenic T. vaginalis TH17 trophozoites (Flp-HA-TvFACPα(S2A) plasmid), overexpressed, in lysate
T1 sequence: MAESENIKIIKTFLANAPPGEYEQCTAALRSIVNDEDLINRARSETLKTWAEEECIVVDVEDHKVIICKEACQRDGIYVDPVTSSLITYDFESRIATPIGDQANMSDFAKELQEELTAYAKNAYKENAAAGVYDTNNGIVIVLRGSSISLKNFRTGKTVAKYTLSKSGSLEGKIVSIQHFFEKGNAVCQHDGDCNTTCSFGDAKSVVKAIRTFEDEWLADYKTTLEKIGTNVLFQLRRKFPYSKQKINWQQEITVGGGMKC

B1: Alexa Fluor 555-His-TvFACPα (natural protein)
chain: T1 sequence with A2S
modifications: Alexa Fluor 555 maleimide label (residue not stated)
notes: T. vaginalis F-actin capping protein subunit α (TvFACPα), TVAG_470230, 267 amino acids; m6 after dye labelling; source: recombinant from pET28-His-TvFACPα, purified, labelled with Alexa Fluor 555 maleimide
B2: α-actin (endogenous T. vaginalis) (natural protein)
chain: not shown
notes: T. vaginalis α-actin detected by anti-α-actin antibody; other actin genes of the parasite may be detected too; also called F-actin; TvActin; source: endogenous, T. vaginalis TH17 lysate
B3: HA-TvFACPα (natural protein)
chain: T1 sequence with A2S
notes: T. vaginalis F-actin capping protein subunit α (TvFACPα), TVAG_470230, 267 amino acids; source: transgenic T. vaginalis TH17 trophozoites (Flp-HA-TvFACPα plasmid), overexpressed, in lysate

Tests used:
[1] = biological target: T2, tagless recombinant TvActin (rTvActin) (Trichomonas vaginalis, UniProt P90623 1-376); assay: TIRF microscopy; 6 μM G-rTvActin (10% Alexa Fluor 488-labelled) polymerising in TIRF buffer on NEM-myosin II-coated flow cell with 300 nM His-TvFACPα; Alexa Fluor 555-His-TvFACPα seen at the barbed end; settings: both partners purified
T2 construct: T. vaginalis α-actin (TvActin), TVAG_337240; Monomeric (G-) in G-buffer, polymerised (F-) in F-buffer; the assay's format tells which; 10% pyrene-labelled in the pyrene assay and 10% Alexa Fluor 488-labelled in TIRF microscopy; also called G-rTvActin; F-rTvActin; source: E. coli BL21, GST-TvActin cleaved with thrombin, purified (heparin-Sepharose, Sephacryl S-300 gel filtration)

[2] = biological target: T1, HA-TvFACPα(S2A); assay: co-IP; anti-HA agarose beads on lysates of TH17 trophozoites overexpressing HA-TvFACPα or its mutants (1% Triton X-100, 5 mM EDTA in TBS, 4°C overnight); Western blotting for α-actin and α-actinin; also after DMSO or TBB (CKII inhibitor) treatment; settings: partners not purified
[3] = biological target: B2; assay: co-sedimentation; actin fractionation of trophozoite lysates (Cytoskeleton Inc. kit): 100,000 × g for 1 h, F-actin and associated proteins in the pellet; Western blotting; nontransgenic and transgenic TH17, flagellate and amoeboid forms, DMSO or TBB, T1 isolate; settings: partners not purified

## B1
[1]
  binding result: binds

## B2
[2]
  fold change of coimmunoprecipitated α-actin signal against HA-TvFACPα: 3 fold

## B3
[3]
  fold change of cosedimented level against endogenous TvFACPα in the nontransfectant: ~2 fold
